Test results as given in patent US20240108707A1, “CHAGAS DISEASE VACCINE ANTIGENS WITH IMPROVED STABILITY AND DECREASED AGGREGATION” (Baylor College of Medicine, priority 2019, published 2024).
Where two headings read alike, the source gives them in different places.

Legend:
[1] = Solubility of recombinant protein expressed in E. coli BL21(DE3) (SDS-PAGE of soluble fraction and inclusion bodies; 8M urea); type: physicochemical; conditions: for solubility of protein as expressed in E. coli: E. coli BL21(DE3), induced with 0.5 mM IPTG
Method: FIGS. 3A and B. SDS-PAGE of expressed wild-type TSA-1-NT in E. coli BL21(DE3) induced with 0.5 mM IPTG from 0-16 hours.
FIGS. 6A and B. SDS-PAGE of expressed TSA-1-C4 in E. coli BL21(DE3) induced with 0.5 mM IPTG over 16 hours.
(§1) In order to develop as a recombinant protein vaccine that can be used in humans in endemic areas, the coding DNA for TSA-1-NT was identified and codon optimized for expression in E. coli. The synthesized DNA was cloned into pET41a, a bacterial expression vector with an IPTG inducible T7 promoter. The recombinant TSA-1-NT/pET41a plasmid DNA was transformed into E. coli BL21(DE3). […] The on-column refolded TSA-1-NT was soluble but aggregated when stored at 4° C. one month (FIG. 4C). Aggregation causes problems with reproducibility and consistency, and would prevent the protein from being developed into a vaccine formulation. We hypothesized that the reason for the aggregation was the interaction of four cysteine residues in the sequence of the molecule (C248, C267, C360, C447) that could lead to intermolecular disulfide bridges.
The coding DNA for TSA-1-C4 (SEQ ID NO: 5) was codon optimized for expression in E. coli, synthesized by GenScript, and cloned into pET41a with an octahistidine-tag (SEQ ID NO: 11, HHHHHHHH, shaded in FIG. 5A) or without an octahistidine-tag (SEQ ID NO: 3, FIG. 2 and FIG. 5B) expressed at its C-terminus. The recombinant plasmid DNAs were transformed into E. coli BL21(DE3) and selected on LB agar plates containing 30 μg/mL of kanamycin. The correct sequences and reading frames were confirmed by double-strand DNA sequencing with vector flanking primers.

[2] = Aggregation / stability of on-column refolded protein on storage, stirring and freeze-thaw (visual analysis, SDS-PAGE, Western blot); type: physicochemical; conditions: for aggregation of on-column refolded protein on storage: stored at 4° C. one month, SDS-PAGE (TSA-1-C4: in PBS, also visual analysis, Western blot)
Method: FIG. 4A-C. On-column refolding of TSA-1-NT. A, chromatographic profile of TSA-1-NT refolded by Size Exclusion Chromatography; B, samples were collected and analyzed by SDS-PAGE under non-reducing condition aggregates (a), and refolded protein (b and c); C, refolded TSA1-NT (b) after one month at 4° C. under reducing (lanes 1,3) and non-reducing conditions (lane 2).
FIGS. 10A, B and C. SDS-PAGE analysis of refolded TSA-1 C4 by Size-Exclusion Chromatography. A, the collected fractions of the main peak of seven consecutive refolding batches of denatured TSA-1 C4 (in 1.6×100 XK column packed with 185 ml of Sepharose 6FF) were analyzed by 10% SDS-PAGE under non-reducing conditions; batch1 (Lanes 2 and 3), batch 2 (Lanes 4 and 5), batch 3 (Lanes 6 and 7), batch 4 (Lanes 8 and 9), batch 5 (Lanes 10 and 11), batch 6 (Lanes 12 and 13), batch 7 (Lanes 14 and 15). B, Refolded TSA-1-C4 was stored at 4° C. in refolding buffer (lanes 1,4), Tris-HCl (lanes 2 and 5) and PBS (lanes 3 and 6) buffers. Samples were analyzed by SDS-PAGE under non-reduced conditions before (lanes 1, 2 and 3) and after one month (lanes 4, 5 and 6) of storage at 4° C. C, the stability of refolded TSA-1-C4 was tested by orbital stirring at 25 rpm and 20° C. for 24 (lane 2), 48 (lane 3) and 120 h (lane 4), and by cycles of freezing (−80° C.)-thawing at 24 h (lane 5), 48 (lane6) and (lane 7). Molecular Weight marker (lane 1).
as §1
However, and more importantly, and unlike TSA-1 NT, after purification on a nickel column or ion-exchange chromatography (FIGS. 8A and B) and refolding on a size-exclusion column (FIGS. 9A and B). The refolded TSA-1-C4 was concentrated by ultrafiltration, analyzed by SDS-PAGE (FIG. 10A) and it was stable.

[3] = tested on: T. cruzi; conditions: mice; cited from earlier work
[4] = cited from earlier work
[5] = tested on: T. cruzi; conditions: formulated with E6020-SE; versus Tc24+E6020-SE; cited from earlier work
[6] = tested on: H1 Trypanosoma cruzi; assay: Therapeutic vaccine efficacy: parasitemia in H1 Trypanosoma cruzi-infected mice; type: in vivo; conditions: 20 μg antigen IM, acute infection, compared to untreated controls
Method: FIGS. 11A and B. Therapeutic effect of TSA-1-C4 alone or with Tc24-C4 and in a combination with or without benznidazole (BZN) treatment. H1 Trypanosoma cruzi-infected mice were treated with Tc24-C4 and TSA-1-C4, […] and given orally 25 mg/kg BZN per day for 20 days. A, Kinetic parasitemia was recorded each 3 days during the acute infection. Standard bars represent the error of the mean. B, Area under the curve (AUC) was graphed using the simple method of Gagnon. Histograms represent the mean and standard bars the error of the mean.
Briefly, H1 Trypanosoma cruzi-infected mice were treated with Tc24-C4 and TSA-1-C4, 20 μg each and given orally 25 mg/kg BZN per day for 20 days. Kinetic parasitemia was recorded each 3 days during the acute infection (FIG. 11A), and the area under the curve (AUC) was graphed (FIG. 11B).

TSA-1-NT: N-terminal fragment of TSA-1 (aa 30-617), wild-type cysteines [reference compound]
solubility in 8M urea [1]: soluble in 8M urea
solubility of protein as expressed in E. coli [1]: expressed as insoluble protein in inclusion body
aggregation of on-column refolded protein on storage [2]: aggregated
aggregation when compounded into vaccine compositions ([2]; vaccine compositions): aggregates
protective immunity [3]: induces protective immunity

B1: Tc24-C4: Recombinant T. cruzi Tc24 with 4 cysteine residues mutated to serine residues (protein)
chain: MGASGSKGSTSDKGLASDKDGKNAKDRKEAWERIRQAIPREKTAEAKQRRIELFKKFDKNETGKLSYDEVHSGSLEVLKLDEFTPRVRDITKRAFDKARALGSKLENKGSEDFVEFLEFRLMLSYIYDFFELTVMFDEIDASGNMLVDEEELKRAVPKLEAWGAKVEDPAALFKELDKNGTGSVTFDEFAAWASAVKLDADGDPDNVPESA
modifications: synthetic recombinant protein based on TSA1 from T. cruzi
notes: Recombinant T. cruzi Tc24 with 4 cysteine residues mutated to serine residues
solubility of protein as expressed in E. coli ([4]; E. coli (BL21)): soluble protein
aggregation on storage ([4]; purified protein stored at 4° C. for 9 days, Western blot, light-scattering, HPLC-RP): did not form any aggregation
protection (mouse survival rate and parasitemia levels in blood) [5]: similarly protected

B2: TSA-1-C4: Recombinant T. cruzi TSA-1 fragment, four cysteines mutated to serine (C248S, C267S, C360S, C447S), plus 43 C-terminal amino acids (protein)
chain: MERNSGDLQLPQEIAMLVPNKTQVVPKSGGEGKVKDIFASPALVRAGGVMIAFVEGRTKNKLFPEVIDLSSSDIVAGYIKAPETWQSLVAEVTKEYWQAHTVLESANNSNHRVGVARLPTGITRGNKVFLLVGSYEERREIDDYIWKAEAWNIKVIEGEATQSTEVQPTQPINWSEPKPLFQTDSPNNKGDLKEFLGGGGSGIVMGNGTLVFPLTAKDESNKVFSLITYSTDDGQKWEIPGGVSSVASRSPRVTEWEEGTLLMVTYSEDGRKVFESRDMGKTWTEAFGTLPGVWLKSGPELPEVSLRVDALITATIEGRKVMLYTQKVRHFLEVDEPNALHLWVTDNNRTFHLGPFSVDSAENKTFANTLLYSDDALHLLQAKGDHESTAVSLARLTEELNTINSVLSTWVQLDASFSESSIPTAGLVGFLSNTTSSGDTWIDGYRSMNATVTKAAKVENGFKFTGPGSRATWPVNSRWDIKQYGFVDYNFTIVAMATIHQVPSESTPLLGASLRGNKRTKLIGLSYGAGGKWETVYDGTKTVQGGTWEPGREYQVALMLQDGNKGFVYVDGVLVGNPAMLPTPEERWTEFSHFYFGGDEGDSGSDATLTDVFLYNRPLSVGELKMIKEVED
modifications: synthetic recombinant protein based on TSA1 from T. cruzi
notes: Recombinant T. cruzi TSA-1 fragment, four cysteines mutated to serine (C248S, C267S, C360S, C447S), plus 43 C-terminal amino acids
solubility in 8M urea [1]: soluble in 8M urea
solubility of protein as expressed in E. coli [1]: expressed as insoluble protein in inclusion bodies
aggregation under stirring ([2]; after 120 h under orbital stirring, 25 rpm, 20° C.): No aggregation observed
aggregation after cycles of freezing-thawing ([2]; freezing (−80° C.)-thawing at 24, 48 and 120 h): No aggregation observed
aggregation of on-column refolded protein on storage [2]: No aggregation observed
levels of parasites in the blood (parasitemia, AUC) [6]: significantly lower levels of parasites in the blood
